Results from patent US10087225B2, “Formulation of MK2 inhibitor peptides” (MOERAE MATRIX, INC., priority 2015, dated 2018).

How the values were obtained:
Assay in all cases: Kinase Profiling Assay
Type in all cases: biochemical
Details in all cases: for % activity: 100 μM
ULK2(h) = biological target: T1, ULK2(h) (Homo sapiens, UniProt Q8IYT8)
T1 sequence (Q8IYT8 1-1036): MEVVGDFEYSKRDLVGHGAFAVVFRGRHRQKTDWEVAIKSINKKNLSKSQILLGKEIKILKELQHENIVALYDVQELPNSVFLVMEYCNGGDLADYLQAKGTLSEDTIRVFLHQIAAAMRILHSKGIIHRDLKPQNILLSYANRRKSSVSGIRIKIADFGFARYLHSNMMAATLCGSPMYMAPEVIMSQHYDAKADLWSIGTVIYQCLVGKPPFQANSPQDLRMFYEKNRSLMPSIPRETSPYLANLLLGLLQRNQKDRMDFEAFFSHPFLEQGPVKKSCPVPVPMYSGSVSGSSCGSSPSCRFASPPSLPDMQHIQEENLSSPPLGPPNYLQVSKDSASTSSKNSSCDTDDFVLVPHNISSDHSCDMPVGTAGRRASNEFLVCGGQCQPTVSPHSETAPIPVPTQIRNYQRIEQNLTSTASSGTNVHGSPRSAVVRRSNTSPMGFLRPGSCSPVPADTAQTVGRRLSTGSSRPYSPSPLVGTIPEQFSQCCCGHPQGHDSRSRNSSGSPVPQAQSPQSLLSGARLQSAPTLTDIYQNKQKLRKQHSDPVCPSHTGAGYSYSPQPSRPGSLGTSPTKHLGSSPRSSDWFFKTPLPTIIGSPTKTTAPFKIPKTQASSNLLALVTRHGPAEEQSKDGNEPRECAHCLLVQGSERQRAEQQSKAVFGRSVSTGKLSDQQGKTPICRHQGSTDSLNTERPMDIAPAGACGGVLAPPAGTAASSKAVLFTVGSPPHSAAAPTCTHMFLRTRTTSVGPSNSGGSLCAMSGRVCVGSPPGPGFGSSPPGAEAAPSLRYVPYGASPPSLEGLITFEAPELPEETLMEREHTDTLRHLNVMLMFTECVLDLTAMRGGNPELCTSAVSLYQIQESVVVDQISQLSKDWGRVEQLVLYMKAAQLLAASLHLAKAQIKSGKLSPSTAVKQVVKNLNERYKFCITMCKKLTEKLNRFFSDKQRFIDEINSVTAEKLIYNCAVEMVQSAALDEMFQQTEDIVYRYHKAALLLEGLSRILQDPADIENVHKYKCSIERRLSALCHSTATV

CK2(h) = CK2(h) (Homo sapiens, UniProt P68400)
BRK(h) = BRK(h) (Homo sapiens, UniProt Q13882)
PRK2(h) = PRK2(h) (Homo sapiens, UniProt Q16513)
Itk(h) = biological target: T2, Itk(h) (Homo sapiens, UniProt Q08881)
T2 sequence (Q08881 1-620): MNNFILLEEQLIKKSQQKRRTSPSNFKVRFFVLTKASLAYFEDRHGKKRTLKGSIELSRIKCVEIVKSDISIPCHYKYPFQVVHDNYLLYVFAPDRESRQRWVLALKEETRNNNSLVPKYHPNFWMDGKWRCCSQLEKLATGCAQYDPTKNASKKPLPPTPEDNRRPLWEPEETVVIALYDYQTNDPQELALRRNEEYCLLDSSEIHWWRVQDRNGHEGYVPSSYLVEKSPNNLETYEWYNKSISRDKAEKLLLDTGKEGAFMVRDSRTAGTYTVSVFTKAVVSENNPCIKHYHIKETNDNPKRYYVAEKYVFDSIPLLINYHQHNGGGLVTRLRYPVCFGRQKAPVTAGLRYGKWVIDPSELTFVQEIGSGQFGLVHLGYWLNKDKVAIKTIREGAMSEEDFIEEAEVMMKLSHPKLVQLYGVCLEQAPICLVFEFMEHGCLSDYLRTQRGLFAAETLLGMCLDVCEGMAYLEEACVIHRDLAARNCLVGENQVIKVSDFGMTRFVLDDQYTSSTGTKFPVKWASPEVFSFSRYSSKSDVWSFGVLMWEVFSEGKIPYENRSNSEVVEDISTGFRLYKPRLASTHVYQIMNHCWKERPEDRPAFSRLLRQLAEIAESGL

PKCζ(h) = biological target: T3, PKCζ(h) (Homo sapiens, UniProt Q05513)
T3 sequence (Q05513 1-592): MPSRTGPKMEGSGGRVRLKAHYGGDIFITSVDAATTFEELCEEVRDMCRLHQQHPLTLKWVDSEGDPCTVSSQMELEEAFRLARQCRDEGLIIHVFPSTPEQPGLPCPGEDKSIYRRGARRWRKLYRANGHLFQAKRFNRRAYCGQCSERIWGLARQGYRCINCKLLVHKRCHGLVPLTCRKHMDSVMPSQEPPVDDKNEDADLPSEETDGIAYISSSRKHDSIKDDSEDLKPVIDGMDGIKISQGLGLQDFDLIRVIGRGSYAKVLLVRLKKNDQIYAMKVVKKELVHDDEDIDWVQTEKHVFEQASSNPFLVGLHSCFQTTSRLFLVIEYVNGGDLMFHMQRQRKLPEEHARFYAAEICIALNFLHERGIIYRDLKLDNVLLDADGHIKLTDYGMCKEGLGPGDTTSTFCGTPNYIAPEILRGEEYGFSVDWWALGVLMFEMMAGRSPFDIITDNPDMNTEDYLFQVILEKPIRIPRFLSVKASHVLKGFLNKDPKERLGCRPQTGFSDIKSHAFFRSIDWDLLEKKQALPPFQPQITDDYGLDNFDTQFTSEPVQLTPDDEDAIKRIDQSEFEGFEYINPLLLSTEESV

EphA5(h) = EphA5(h) (Homo sapiens, UniProt P54756)
Met(D1246H)(h) = Met(D1246H)(h) (Homo sapiens, UniProt P08581, D1228H)
CSK(h) = CSK(h) (Homo sapiens, UniProt P41240)
STK33(h) = STK33(h) (Homo sapiens, UniProt Q9BYT3)
MAPKAP-K2(h) = MAPKAP-K2(h) (Homo sapiens, UniProt P49137)
WNK3(h) = WNK3(h) (Homo sapiens, UniProt Q9BYP7)

Chain of EphA5(h) (P54756 25-1037): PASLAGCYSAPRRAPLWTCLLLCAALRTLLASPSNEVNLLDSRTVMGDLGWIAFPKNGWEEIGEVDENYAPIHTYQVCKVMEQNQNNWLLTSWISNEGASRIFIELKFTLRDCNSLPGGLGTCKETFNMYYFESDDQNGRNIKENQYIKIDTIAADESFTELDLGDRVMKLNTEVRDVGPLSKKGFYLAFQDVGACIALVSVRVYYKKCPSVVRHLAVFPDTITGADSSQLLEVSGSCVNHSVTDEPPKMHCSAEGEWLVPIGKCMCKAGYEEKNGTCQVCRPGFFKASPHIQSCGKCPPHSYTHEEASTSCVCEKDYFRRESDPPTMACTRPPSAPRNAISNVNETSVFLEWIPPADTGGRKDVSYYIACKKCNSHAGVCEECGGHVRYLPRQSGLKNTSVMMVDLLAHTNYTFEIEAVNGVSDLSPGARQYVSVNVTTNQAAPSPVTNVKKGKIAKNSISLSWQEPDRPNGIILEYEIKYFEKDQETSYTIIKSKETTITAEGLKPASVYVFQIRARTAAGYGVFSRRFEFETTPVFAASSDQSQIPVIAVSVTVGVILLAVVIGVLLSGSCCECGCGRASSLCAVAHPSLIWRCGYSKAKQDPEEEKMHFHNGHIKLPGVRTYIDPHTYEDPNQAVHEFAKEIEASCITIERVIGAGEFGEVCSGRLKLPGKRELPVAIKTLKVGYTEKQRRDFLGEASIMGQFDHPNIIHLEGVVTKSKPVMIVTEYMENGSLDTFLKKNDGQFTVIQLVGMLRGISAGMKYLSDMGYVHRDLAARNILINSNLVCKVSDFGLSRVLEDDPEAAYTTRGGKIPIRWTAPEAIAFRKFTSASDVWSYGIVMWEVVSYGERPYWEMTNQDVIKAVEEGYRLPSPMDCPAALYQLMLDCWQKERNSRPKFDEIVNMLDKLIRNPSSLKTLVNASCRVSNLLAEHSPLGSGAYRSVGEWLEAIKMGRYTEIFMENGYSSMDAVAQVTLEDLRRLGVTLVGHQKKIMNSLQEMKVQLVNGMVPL
Chain of STK33(h) (Q9BYT3 whole entry): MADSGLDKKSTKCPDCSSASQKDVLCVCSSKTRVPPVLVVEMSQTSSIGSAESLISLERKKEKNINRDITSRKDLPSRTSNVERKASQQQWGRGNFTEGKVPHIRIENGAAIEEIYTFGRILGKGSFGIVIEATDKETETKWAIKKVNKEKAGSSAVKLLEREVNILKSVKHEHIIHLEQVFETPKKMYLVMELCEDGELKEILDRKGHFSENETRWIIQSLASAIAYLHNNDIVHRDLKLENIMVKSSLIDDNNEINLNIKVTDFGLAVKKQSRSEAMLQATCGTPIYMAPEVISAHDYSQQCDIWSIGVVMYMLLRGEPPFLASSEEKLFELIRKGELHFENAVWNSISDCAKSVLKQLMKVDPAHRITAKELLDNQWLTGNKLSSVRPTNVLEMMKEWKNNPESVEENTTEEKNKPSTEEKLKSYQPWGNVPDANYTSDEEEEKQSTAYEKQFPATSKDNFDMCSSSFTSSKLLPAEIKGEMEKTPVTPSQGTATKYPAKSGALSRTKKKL
Chain of PRK2(h) (Q16513 whole entry): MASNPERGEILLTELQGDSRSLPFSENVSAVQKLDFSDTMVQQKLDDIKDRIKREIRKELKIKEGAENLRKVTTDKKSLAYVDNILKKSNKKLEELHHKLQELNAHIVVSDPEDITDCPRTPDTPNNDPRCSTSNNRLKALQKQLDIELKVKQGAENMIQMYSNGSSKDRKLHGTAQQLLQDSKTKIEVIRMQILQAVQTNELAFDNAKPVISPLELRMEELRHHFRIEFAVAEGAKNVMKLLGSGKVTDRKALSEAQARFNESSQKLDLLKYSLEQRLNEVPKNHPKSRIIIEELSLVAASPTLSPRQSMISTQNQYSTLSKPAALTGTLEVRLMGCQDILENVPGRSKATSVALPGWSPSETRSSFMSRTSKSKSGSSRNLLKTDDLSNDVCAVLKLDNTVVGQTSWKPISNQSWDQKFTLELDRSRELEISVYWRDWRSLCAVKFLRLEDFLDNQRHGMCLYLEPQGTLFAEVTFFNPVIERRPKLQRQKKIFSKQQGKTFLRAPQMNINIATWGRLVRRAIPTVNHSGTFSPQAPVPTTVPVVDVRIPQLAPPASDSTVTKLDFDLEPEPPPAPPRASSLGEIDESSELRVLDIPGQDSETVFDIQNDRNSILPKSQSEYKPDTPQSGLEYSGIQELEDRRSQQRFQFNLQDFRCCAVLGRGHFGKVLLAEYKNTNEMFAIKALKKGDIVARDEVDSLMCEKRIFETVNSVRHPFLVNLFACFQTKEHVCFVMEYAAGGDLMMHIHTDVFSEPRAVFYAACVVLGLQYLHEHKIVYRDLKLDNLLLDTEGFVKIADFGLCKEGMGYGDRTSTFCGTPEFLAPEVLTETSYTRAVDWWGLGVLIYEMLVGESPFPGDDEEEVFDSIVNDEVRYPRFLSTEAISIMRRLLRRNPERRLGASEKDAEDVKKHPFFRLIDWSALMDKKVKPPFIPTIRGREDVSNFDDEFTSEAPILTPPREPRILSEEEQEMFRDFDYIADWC
Chain of CSK(h) (P41240 whole entry): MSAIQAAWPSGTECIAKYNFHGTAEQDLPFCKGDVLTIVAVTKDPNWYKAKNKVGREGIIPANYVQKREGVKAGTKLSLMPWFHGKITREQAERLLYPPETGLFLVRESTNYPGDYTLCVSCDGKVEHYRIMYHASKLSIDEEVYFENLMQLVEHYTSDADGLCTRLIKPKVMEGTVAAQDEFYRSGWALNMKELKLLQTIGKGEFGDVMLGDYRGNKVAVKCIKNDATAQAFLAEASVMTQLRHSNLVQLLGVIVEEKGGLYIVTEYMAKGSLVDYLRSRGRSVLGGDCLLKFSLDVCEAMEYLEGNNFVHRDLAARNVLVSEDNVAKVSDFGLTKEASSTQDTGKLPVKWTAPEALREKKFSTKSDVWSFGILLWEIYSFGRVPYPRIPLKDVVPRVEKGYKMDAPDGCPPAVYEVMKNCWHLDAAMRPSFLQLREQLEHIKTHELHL
Chain of CK2(h) (P68400 whole entry): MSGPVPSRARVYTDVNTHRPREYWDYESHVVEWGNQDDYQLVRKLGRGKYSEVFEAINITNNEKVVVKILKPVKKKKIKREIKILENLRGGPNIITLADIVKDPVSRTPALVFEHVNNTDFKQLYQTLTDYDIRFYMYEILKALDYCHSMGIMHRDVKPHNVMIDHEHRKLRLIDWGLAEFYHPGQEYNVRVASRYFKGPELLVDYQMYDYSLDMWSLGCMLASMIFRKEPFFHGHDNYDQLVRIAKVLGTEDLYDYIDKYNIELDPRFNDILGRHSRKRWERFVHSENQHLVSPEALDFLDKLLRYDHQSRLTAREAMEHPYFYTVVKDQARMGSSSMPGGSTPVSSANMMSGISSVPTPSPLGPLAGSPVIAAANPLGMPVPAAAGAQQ
Chain of CK2(h) (P67870 whole entry partner): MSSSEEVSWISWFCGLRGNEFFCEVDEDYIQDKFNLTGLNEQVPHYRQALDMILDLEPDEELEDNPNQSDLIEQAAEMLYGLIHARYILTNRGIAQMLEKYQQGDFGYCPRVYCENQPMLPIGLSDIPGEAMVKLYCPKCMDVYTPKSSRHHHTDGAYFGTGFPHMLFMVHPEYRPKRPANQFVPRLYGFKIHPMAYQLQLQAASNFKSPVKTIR
Chain of MAPKAP-K2(h) (P49137 whole entry): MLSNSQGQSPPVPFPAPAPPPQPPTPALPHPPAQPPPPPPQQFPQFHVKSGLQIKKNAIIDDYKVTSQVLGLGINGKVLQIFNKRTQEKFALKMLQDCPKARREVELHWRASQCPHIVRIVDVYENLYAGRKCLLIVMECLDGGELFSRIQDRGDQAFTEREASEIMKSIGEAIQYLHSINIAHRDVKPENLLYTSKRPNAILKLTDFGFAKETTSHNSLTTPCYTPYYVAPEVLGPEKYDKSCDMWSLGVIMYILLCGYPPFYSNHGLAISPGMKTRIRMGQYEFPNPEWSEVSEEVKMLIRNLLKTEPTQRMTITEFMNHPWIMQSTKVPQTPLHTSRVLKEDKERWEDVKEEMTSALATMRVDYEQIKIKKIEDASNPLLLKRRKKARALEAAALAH
Chain of BRK(h) (Q13882 whole entry): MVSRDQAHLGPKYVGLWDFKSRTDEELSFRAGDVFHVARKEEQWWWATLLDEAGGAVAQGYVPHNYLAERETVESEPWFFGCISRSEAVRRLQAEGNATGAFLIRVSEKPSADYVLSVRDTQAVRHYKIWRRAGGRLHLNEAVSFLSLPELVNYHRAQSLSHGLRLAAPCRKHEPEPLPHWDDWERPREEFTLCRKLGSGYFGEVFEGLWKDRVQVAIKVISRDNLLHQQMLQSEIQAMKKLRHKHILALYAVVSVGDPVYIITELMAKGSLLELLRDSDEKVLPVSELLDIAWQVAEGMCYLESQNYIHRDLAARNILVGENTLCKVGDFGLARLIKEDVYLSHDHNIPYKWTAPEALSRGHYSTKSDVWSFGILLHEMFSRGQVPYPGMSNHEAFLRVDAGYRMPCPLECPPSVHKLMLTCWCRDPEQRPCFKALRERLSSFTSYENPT

Substance	% activity (ULK2(h))	% activity (CK2(h))	% activity (BRK(h))	% activity (PRK2(h))	% activity (Itk(h))	% activity (PKCζ(h))	% activity (EphA5(h))	% activity (Met(D1246H)(h))	% activity (CSK(h))	% activity (STK33(h))	% activity (MAPKAP-K2(h))	% activity (WNK3(h))	further results
H-YARAAARQARAKALARQLGVAA-OH [MMI-0100]	–	–	–	–	–	–	–	–	–	–	–	–	activity at 100 µM (ULK2(h)): 123%; activity at 100 µM (CK2(h)): 90%; activity at 100 µM (BRK(h)): 70%; activity at 100 µM (PRK2(h)): 72%; activity at 100 µM (Itk(h)): 99%; activity at 100 µM (PKCζ(h)): 82%; activity at 100 µM (EphA5(h)): 110%; activity at 100 µM (Met(D1246H)(h)): 99%; activity at 100 µM (CSK(h)): 70%; activity at 100 µM (STK33(h)): 99%; activity at 100 µM (MAPKAP-K2(h)): 19%; activity at 100 µM (WNK3(h)): 100%
HRRIKAWLKKIKALARQLGVAA (Mammalian) [MMI-0500]	124%	93%	41%	7%	7%	7%	42%	150%	2%	16%	9%	9%	–
YARAAARQARAKALNRQLGVA (Mammalian) [MMI-0200]	132%	83%	127%	74%	98%	98%	123%	139%	33%	98%	35%	97%	–
